Data on one substance can be found in article PMC9104065.

The assay addresses Wisteria floribunda agglutinin (Wisteria floribunda). Briefly: automated chemiluminescent enzyme immunoassay (CLEIA, HISCL); IgA1 standards captured on WFA-conjugated magnetic beads, detected with alkaline-phosphatase-labelled anti-IgA1 mAb; 42 °C.

Take “polymeric IgA1 standard cross linked with glutaraldehyde, with sialidase digestion”: the CLEIA count, fold over nIgA1 not treated with sialidase came to 700 fold.
